Data as given in publication PMC8327961, “Nse5/6 inhibits the Smc5/6 ATPase and modulates DNA substrate binding” (The EMBO Journal, 2021).

T1: Nse5/6 dimer (Saccharomyces cerevisiae, UniProt Q03718;P40026 1-556;1-464)
T1 sequence 1: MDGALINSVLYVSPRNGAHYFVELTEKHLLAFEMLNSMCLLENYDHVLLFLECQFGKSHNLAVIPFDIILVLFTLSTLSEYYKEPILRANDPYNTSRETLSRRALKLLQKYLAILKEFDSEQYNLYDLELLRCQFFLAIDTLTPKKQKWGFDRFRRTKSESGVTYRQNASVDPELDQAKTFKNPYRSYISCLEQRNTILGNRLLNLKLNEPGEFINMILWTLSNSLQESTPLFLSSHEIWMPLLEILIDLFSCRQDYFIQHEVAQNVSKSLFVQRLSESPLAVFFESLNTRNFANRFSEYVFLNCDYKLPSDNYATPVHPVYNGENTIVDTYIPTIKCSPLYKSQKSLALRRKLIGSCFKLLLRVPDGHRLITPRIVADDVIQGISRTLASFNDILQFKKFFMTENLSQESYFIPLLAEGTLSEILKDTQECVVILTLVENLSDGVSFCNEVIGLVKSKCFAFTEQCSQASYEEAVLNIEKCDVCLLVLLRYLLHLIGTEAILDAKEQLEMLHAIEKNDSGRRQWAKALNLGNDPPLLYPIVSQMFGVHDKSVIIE
T1 sequence 2: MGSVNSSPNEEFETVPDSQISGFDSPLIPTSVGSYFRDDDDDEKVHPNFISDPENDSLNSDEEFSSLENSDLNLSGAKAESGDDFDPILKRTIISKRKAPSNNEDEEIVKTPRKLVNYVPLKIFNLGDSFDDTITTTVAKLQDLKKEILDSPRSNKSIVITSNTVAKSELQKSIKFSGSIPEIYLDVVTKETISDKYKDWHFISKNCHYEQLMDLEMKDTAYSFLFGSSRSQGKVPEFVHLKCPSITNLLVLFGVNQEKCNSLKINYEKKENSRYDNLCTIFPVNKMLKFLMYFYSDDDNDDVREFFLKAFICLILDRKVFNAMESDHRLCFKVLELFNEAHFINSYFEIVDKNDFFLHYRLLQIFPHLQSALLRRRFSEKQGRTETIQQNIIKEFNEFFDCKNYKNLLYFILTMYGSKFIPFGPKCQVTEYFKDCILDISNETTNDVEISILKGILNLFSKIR

B1: 40bpDNA (STI699/STI700) (dsDNA)
DNA 1: TTAGTTGTTCGTAGTGCTCGTCTGGCTCTGGATTACCCGC
DNA 2: GCGGGTAATCCAGAGCCAGACGAGCACTACGAACAACTAA

Assays:
Smc5/6 core hexamer = molecular target: T2, Smc5/6 core hexamer (Saccharomyces cerevisiae, UniProt Q08204+Q12749); assay: pyruvate kinase/lactate dehydrogenase coupled ATPase assay; assay type: biochemical; conditions: Walker B mutation in both Smc5 and Smc6, residue numbers not told; ATPase buffer pH 7.5, 2 mM MgCl2; 25 °C
T2 construct: full-length Smc5, Smc6, Nse1, Nse2, Nse3, Nse4 co-expressed in E. coli Rosetta (DE3); C-terminal 3C-Twin-Strep-tag on Smc6; with Non-structural maintenance of chromosomes element 1; E3 SUMO-protein ligase MMS21; Non-structural maintenance of chromosome element 3; Non-structural maintenance of chromosome element 4
T2 sequence (Q08204 whole entry): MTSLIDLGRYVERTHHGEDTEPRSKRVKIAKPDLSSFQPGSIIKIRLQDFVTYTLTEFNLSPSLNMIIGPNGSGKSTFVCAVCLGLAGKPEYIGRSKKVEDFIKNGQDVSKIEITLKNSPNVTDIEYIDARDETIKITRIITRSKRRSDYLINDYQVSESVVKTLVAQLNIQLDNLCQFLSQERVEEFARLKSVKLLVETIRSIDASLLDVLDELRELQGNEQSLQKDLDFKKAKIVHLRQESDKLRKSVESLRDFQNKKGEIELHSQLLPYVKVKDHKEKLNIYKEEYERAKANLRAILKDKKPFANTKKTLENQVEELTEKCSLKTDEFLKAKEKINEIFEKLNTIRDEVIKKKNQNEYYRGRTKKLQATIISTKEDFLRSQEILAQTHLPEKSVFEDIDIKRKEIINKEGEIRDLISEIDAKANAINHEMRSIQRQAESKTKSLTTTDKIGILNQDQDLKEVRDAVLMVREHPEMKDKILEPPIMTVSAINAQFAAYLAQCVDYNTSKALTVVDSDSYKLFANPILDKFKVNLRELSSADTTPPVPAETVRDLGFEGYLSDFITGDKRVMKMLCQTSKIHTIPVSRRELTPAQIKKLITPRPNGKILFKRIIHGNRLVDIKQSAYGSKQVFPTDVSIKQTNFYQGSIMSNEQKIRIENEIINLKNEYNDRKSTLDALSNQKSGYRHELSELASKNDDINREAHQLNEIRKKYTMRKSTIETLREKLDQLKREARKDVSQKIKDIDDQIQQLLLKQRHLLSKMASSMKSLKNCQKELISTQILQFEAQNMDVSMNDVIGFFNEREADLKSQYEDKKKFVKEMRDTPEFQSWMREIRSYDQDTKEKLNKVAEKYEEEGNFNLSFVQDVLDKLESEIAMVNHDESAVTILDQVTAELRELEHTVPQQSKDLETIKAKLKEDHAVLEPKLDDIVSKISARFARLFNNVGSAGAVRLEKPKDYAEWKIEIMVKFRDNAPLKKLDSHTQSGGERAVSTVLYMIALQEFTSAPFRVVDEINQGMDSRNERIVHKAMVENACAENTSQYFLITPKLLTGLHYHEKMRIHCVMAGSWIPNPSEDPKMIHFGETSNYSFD
T2 sequence (Q12749 whole entry): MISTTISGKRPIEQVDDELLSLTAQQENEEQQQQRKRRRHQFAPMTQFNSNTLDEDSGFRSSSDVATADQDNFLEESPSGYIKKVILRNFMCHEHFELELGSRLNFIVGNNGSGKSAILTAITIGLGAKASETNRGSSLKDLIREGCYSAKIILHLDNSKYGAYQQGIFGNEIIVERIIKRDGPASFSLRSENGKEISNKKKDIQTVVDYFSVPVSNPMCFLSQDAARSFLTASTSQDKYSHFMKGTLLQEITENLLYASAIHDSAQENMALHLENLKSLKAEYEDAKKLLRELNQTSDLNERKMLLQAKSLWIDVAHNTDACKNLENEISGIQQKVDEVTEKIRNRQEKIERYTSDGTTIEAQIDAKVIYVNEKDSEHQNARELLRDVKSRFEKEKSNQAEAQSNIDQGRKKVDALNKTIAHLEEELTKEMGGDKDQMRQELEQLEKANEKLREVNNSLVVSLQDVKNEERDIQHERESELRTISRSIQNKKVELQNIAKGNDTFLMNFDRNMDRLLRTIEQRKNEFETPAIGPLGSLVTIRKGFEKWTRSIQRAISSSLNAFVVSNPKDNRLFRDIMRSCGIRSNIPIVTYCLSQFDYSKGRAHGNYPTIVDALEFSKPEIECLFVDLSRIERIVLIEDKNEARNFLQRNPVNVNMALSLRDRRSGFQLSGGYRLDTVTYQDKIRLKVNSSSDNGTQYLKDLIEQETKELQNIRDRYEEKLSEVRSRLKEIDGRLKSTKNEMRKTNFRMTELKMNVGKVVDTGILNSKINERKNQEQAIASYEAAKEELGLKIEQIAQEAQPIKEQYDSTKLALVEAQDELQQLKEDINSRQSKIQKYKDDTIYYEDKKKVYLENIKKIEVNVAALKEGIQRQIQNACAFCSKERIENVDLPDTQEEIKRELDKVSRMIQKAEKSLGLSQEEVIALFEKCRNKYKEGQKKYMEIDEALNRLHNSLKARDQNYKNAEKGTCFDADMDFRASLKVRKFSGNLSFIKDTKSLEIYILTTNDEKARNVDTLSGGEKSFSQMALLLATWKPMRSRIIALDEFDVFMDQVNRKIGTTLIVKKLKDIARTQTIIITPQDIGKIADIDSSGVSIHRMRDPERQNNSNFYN
T2 sequence (Q07913 whole entry partner): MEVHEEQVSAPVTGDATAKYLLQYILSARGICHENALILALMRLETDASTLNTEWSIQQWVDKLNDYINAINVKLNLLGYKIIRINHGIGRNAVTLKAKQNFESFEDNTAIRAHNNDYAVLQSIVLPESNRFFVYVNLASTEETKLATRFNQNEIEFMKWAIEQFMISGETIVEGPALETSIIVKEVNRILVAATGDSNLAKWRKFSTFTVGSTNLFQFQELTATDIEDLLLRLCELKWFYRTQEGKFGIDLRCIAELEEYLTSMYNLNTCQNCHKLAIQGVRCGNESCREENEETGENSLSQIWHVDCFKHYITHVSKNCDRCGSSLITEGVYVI
T2 sequence (P38632 whole entry partner): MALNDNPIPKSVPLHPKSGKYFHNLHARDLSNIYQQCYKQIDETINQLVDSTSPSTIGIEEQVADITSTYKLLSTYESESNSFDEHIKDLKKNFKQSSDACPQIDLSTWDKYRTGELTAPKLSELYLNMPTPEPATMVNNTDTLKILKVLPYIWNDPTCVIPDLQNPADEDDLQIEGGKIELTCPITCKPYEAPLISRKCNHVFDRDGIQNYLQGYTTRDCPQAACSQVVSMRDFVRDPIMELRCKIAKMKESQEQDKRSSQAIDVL
T2 sequence (Q05541 whole entry partner): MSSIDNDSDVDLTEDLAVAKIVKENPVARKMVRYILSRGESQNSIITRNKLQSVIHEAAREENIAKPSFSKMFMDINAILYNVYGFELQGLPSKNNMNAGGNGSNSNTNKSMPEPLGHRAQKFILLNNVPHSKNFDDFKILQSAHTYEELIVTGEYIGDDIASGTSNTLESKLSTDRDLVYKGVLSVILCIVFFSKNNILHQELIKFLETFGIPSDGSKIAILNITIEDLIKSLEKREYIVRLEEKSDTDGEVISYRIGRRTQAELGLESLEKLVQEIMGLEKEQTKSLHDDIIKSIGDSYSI
T2 sequence (P43124 whole entry partner): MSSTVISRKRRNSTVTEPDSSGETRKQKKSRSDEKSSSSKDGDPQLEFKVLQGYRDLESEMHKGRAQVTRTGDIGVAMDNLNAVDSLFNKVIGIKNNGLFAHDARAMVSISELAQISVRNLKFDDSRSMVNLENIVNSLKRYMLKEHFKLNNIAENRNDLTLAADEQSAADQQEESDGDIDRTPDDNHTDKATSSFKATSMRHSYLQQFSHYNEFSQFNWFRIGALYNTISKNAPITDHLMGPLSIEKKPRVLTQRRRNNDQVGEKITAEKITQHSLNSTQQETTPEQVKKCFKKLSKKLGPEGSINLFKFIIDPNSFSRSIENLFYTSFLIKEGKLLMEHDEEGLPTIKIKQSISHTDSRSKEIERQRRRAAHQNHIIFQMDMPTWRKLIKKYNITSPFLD

Nse5/6 dimer = molecular target: T1, Nse5/6 dimer; assay: fluorescence anisotropy; ATPase buffer: 10 mM Hepes-KOH pH 7.5, 150 mM K-OAc, 2 mM MgCl2, 20% glycerol; anisotropy at 25 C; plasmid pulldown bound at room temperature, high-salt buffer; conditions: protein: recombinant; copies: 1;1; blunt
[1] = molecular target: Smc5/6 hexamer (Smc5, Smc6, Nse1, Nse2, Nse3, Nse4) (Saccharomyces cerevisiae, UniProt Q08204;Q12749;Q07913;P38632;Q05541;P43124 1-1093;1-1114;1-336;1-267;1-303;1-402); assay: as above; conditions: protein: recombinant; tags: C-terminal 3C-Twin-Strep on Smc6; copies: 1;1;1;1;1;1; blunt
[2] = molecular target: Smc5/6 octamer (hexamer plus Nse5/6) (Saccharomyces cerevisiae, UniProt Q08204;Q12749;Q07913;P38632;Q05541;P43124;Q03718;P40026 …); assay: as above; conditions: protein: recombinant; tags: C-terminal 3C-Twin-Strep on Smc6; reconstitution with Nse5 C-terminal AviTag-3C-Twin-Strep; copies: 1;1;1;1;1;1;1;1; blunt

| Molecule | no noticeable ATP hydrolysis (Smc5/6 core hexamer) | binding result (Nse5/6 dimer) | Kd [1] [nM] | Kd [2] [nM] |
| --- | --- | --- | --- | --- |
| Nc1ncnc2c1ncn2[C@@H]1O[C@H](COP(=O)(O)OP(=O)(O)OP(=O)(O)O)[C@@H](O)[C@H]1O [ATP] | did not display noticeable ATP hydrolysis activity | – | – | – |
| B1 | – | no binding | ~150 | ~100 |
